Target: mCerulean-Hsp70 (UniProt P0DMV8)
Experiment: FRET or BRET

Sequence of UniProt P0DMV8 (P0DMV8 whole entry): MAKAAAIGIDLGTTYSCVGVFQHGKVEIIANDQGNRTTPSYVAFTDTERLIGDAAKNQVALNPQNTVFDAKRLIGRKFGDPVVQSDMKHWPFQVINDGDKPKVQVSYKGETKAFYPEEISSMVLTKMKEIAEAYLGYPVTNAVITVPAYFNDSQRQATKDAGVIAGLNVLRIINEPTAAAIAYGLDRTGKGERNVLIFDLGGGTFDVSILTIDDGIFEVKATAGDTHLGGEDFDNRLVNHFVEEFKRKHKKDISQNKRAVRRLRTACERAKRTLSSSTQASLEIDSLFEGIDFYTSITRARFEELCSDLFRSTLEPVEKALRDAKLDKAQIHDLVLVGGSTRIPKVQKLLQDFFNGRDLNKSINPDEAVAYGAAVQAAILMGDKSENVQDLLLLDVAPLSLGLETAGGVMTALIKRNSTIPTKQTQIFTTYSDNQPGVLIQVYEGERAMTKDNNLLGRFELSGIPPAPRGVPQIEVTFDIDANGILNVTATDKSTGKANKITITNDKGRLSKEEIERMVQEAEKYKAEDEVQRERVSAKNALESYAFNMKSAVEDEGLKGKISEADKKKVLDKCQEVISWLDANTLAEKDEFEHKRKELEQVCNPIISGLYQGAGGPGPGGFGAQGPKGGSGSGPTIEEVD

percent FRET efficiency: 33%
Substance: mVenus-OLA1 (from UniProt Q9NTK5 1-396) (natural protein)

From article PMC6739165
